Experimental findings from article PMC3760334 are described below.

Experiment [1] has as its target signal recognition particle (SRP), fluorescein-labeled at C421 (E. coli) (UniProt P0AGD7). As to the kind of experiment: fluorescence polarisation. (In general: Polarisation of emitted light reports the rotation of a fluorescent probe.)
The target in experiment [2] is RNC_(luciferase) bound to donor-labeled SRP (E. coli | firefly) (UniProt P0AGD7). Description: FRET or BRET. Background: BRET reads energy transfer from a luciferase to a nearby fluorophore.
Experiment [3] has as its target RNC_(EspP) bound to donor-labeled SRP (E. coli) (UniProt P0AGD7). Description: FRET or BRET.
In experiment [4] the target is RNC_(2A8L) bound to donor-labeled SRP (E. coli | not stated) (UniProt P0AGD7). Description: FRET or BRET.
For experiment [5], the target named is RNC_(1A9L) bound to donor-labeled SRP (E. coli | not stated) (UniProt P0AGD7). As to the kind of experiment: FRET or BRET.

With “RNC_(EspP): stalled ribosome-nascent chain complex with the signal sequence of EspP”, in experiment [1], the Kd (in general, the equilibrium constant for the complex coming apart) is 13.6 nM. “RNC_(luciferase): stalled ribosome-nascent chain complex with a nascent chain of firefly luciferase (from UniProt P08659 1-550)” showed a Kd in experiment [1] of 130 nM. In experiment [1], “RNC_(phoA): stalled ribosome-nascent chain complex with the signal sequence of alkaline phosphatase (phoA)” yielded a Kd of 108 nM. The Kd values of the last two substances are within 1.5-fold of each other. As to “SRP receptor (SR), acceptor-labeled (from UniProt P10121 1-497)”, the Kd in experiment [2] was 2060 nM; in experiment [3] it was 311 nM. Besides, the kon (as a rule, the second-order rate constant of association) in experiment [4] came to 8.8e+06 M⁻¹ s⁻¹; in experiment [5] it was 9.9e+06 M⁻¹ s⁻¹.
